As usually defined, the stoichiometry N is the number of molecules, sites or subunits per partner or assembly.

Results on three substances are retold here after paper doi:10.1101/2024.12.31.630886.

For test [1], the target named is IatT, GCN5-related N-acetyltransferase (GNAT) of the iat lasso peptide BGC (Actinosynnema mirum DSM 43827). The test can be described thus: cryo-EM structure.
For test [2] the target is unchanged. As to the kind of experiment: ITC.

With “IatT, GCN5-related N-acetyltransferase (GNAT) of the iat lasso peptide BGC (enzyme)”, the stoichiometry N in test [1] amounted to 14. In the case of “mirusin B (compound 2), monoacetylated lasso peptide”, the stoichiometry N (molar equivalent) in test [2] amounted to 1. In the case of “mirusin C (compound 3), diacetylated lasso peptide”, the stoichiometry N (molar equivalent) in test [2] worked out at 1.
